Experimental findings from paper PMC8196016 are described below.

For the assay, the target named is SARS-CoV-2 RBD trimer protein (SARS-CoV-2 | bacteriophage T4) (UniProt P0DTC2). As to the kind of experiment: SEC; Superdex 200 Increase 10/300 GL; four peaks, peak 3 taken as the trimer by expected size and Western blotting under non-reducing conditions.

For the substance “SARS-CoV-2 RBD trimer protein (from UniProt P0DTC2 319-541) (domain or fragment)”, the stoichiometry N amounted to 3.
